Reference: publication PMC10491252 (bioRxiv, 2023)
Substitutions are numbered along the chain they refer to. Numbers in names are those of the source. Where “and” joins values, the source holds several entries; their conditions need not be identical. Equal entries are not always repeated.

How the values were obtained:
[1] = biological target: bone morphogenetic protein 6 (BMP6) (UniProt P22004)
[2] = biological target: ERFE CLR* (center PGP of the collagen-like repeat mutated to SSS) (human) (UniProt Q4G0M1); assay: AUC
[3] = biological target: ERFE CLR* (center PGP of the collagen-like repeat mutated to SSS) (human) (UniProt Q4G0M1); assay: non-reducing SDS-PAGE
ERFE CLR*ΔC1Q (human) [4] = biological target: ERFE CLR*ΔC1Q (human) (UniProt Q4G0M1); assay: AUC
ERFE CLR*ΔC1Q (human) [5] = biological target: ERFE CLR*ΔC1Q (human) (UniProt Q4G0M1); assay: non-reducing SDS-PAGE
non-reducing SDS-PAGE = biological target: the molecule itself; assay: non-reducing SDS-PAGE
AUC [6] = biological target: the molecule itself; assay: AUC
[7] = biological target: T1, bone morphogenetic protein 6 (BMP6) (UniProt P22004 375-513); assay: cell-based or functional assay
T1 sequence: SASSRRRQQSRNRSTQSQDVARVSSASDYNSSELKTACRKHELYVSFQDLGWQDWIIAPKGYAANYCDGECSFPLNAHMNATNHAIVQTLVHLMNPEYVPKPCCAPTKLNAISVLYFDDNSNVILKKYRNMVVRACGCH

[8] = biological target: bone morphogenetic protein 6 (BMP6) (UniProt P22004); remark: listed apart in the source
AUC [9] = biological target: the molecule itself; assay: AUC; remark: listed apart in the source
[10] = biological target: T2, growth differentiation factor 5 (GDF5) (UniProt P43026 382-501); assay: cell-based or functional assay
T2 sequence: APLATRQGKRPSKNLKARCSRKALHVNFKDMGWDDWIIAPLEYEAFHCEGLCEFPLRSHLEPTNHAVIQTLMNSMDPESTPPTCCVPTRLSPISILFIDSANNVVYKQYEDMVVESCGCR

[11] = biological target: bone morphogenetic protein 2 (BMP2) (UniProt P12643 283-396); assay: cell-based or functional assay
bone morphogenetic protein 2 (BMP2), sequence (P12643 283-396): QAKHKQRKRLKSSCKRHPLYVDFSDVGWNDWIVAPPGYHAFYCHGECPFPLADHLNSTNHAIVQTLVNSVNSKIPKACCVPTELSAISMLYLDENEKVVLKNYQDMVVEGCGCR

[12] = biological target: T1, bone morphogenetic protein 6 (BMP6); assay: cell-based or functional assay; remark: listed apart in the source
[13] = biological target: T3, bone morphogenetic protein 7 (BMP7) (UniProt P18075 293-431); assay: cell-based or functional assay
T3 sequence: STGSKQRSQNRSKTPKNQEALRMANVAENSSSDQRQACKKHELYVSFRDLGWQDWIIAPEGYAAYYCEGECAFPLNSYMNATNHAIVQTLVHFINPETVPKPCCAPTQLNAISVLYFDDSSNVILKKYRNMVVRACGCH

## ERFE CLR* (center PGP of the collagen-like repeat mutated to SSS) (from UniProt Q4G0M1 44-354) (natural protein)
[1]
  IC50 of inhibition of 2.5nM BMP6, luciferase reporter in BRITER cells: 6.1 nM
[2]
  stoichiometry N: 3
[3]
  stoichiometry N: 2

## ERFE CLR*ΔC1Q (from UniProt Q4G0M1 44-207) (domain or fragment)
[1]
  IC50 of inhibition of 2.5nM BMP6, luciferase reporter in BRITER cells: 27 nM
ERFE CLR*ΔC1Q (human) [4]
  percent of the protein as dimer: 38%
  percent of the protein as monomer: 61%
  stoichiometry N: 2
ERFE CLR*ΔC1Q (human) [5]
  stoichiometry N: 2

B1: ERFE ΔC1Q (stop codon at C208, entire C1Q domain removed) (domain or fragment)
chain: PPPGNELPRGPGESRAGPAARPPEPTAERAHSVDPRDAWMLFVRQSDKGVNGKKRSRGKAKKLKFGLPGPPGPPGPQGPPGPIIPPEALLKEFQLLLKGAVRQRERAEPEPCTCGPAGPVAASLAPVSATAGEDDDDVVGDVLALLAAPLAPGPRAPRVEAAFL
non-reducing SDS-PAGE
  stoichiometry N: 2
AUC [6]
  stoichiometry N: 3
[7]
  IC50 of inhibition of 2.5nM BMP6, luciferase reporter in BRITER cells: 7.8 nM

B2: ERFE Cys*ΔC1Q (domain or fragment)
chain: B1 chain with C112S, C114S
AUC [6]
  stoichiometry N: 3
[7]
  IC50 of inhibition of 2.5nM BMP6, luciferase reporter in BRITER cells: 97 nM

B3: ERFE D90A (natural protein)
chain: PPPGNELPRGPGESRAGPAARPPEPTAERAHSVDPRDAWMLFVRQSAKGVNGKKRSRGKAKKLKFGLPGPPGPPGPQGPPGPIIPPEALLKEFQLLLKGAVRQRERAEPEPCTCGPAGPVAASLAPVSATAGEDDDDVVGDVLALLAAPLAPGPRAPRVEAAFLCRLRRDALVERRALHELGVYYLPDAEGAFRRGPGLNLTSGQYRAPVAGFYALAATLHVALGEPPRRGPPRPRDHLRLLICIQSRCQRNASLEAIMGLESSSELFTISVNGVLYLQMGQWTSVFLDNASGCSLTVRSGSHFSAVLLGV
[8]
  IC50 of inhibition of BMP6, luciferase reporter in BRITER cells: 13 nM

B4: ERFE Cys* (Cys155, 157 and 208 mutated to serines) (natural protein)
chain: B3 chain with A47D, C112S, C114S, C165S
[7]
  IC50 of inhibition of 2.5nM BMP6, luciferase reporter in BRITER cells: 8.7 nM
AUC [9]
  stoichiometry N: 3

B5: erythroferrone (ERFE), wild type, N-terminally flag-tagged hERFE residues 44-354 (natural protein)
chain: B3 chain with A47D
[10]
  IC50 of ERFE inhibition of 2.5nM GDF5, BRE-luciferase reporter in BRITER cells: 130 nM
[11]
  IC50 of ERFE inhibition of 2.5nM BMP2, BRE-luciferase reporter in BRITER cells: 170 nM
[12]
  IC50 of ERFE inhibition of 2.5nM BMP6, BRE-luciferase reporter in BRITER cells: 5.2 nM
[13]
  IC50 of ERFE inhibition of 2.5nM BMP7, BRE-luciferase reporter in BRITER cells: 8.9 nM
AUC [9]
  stoichiometry N: 3 and 6

B6: ERFE N94A (natural protein)
chain: B3 chain with A47D, N51A
[8]
  IC50 of inhibition of BMP6, luciferase reporter in BRITER cells: 21 nM
